Assay results from US20230256092A1, “COMBINED USE OF ANTI-CCR8 ANTIBODY AND CHEMOTHERAPEUTIC AGENT” (Shionogi & Co., Ltd., priority 2020, published 2023).
Positions count from the first letter of the chain named. Names may count otherwise. Each block holds one molecule with its values, some of them ahead of it.

Target: T1, human CCR8 (Homo sapiens, UniProt P51685)
T1 construct: expressed in transfected cells; host or cells: 293 cells
Assay: Neutralizing activity: inhibition of Ca2+ influx by 200 nM hCCL1 in human CCR8 expressing 293 cells (FLIPR), Test Example 6
Assay type: cell-based
Conditions: Table 9; WT IC50/mutant IC50; humanized 10A11 heavy chain CDR mutants, IGKV4-1/IGHV3-73
Protocol: The antibody dilution diluted with a medium was added to human CCR8 expressing 293 cells in which a Ca^2+ indicator was incorporated beforehand, and Ca^2+ influx by addition of 200 nM hCCL1 (manufactured by BioLegend) was measured with FLIPR. […] The evaluation was performed at least three times, and IC50 was expressed as average±SD.

B3: h10A11 (IGKV4-1/IGHV3-73 R96K): humanized 10A11 heavy chain CDR point mutant (antibody, V domains shown)
VL: DIVMTQSPDSLAVSLGERATINCRSSKSLLHSNGNTYLYWYQQKPGQPPKLLIYRMSNLASGVPDRFSGSGSGTDFTLTISSLQAEDVAVYYCMQHLEYPLTFGQGTKLEIKRT
VH: EVQLVESGGGLVQPGGSLKLSCAASGFAFNTYALYWVRQASGKGLEWVGRIRSKSNNYATYYADSVKDRFTISRDDSKNTAYLQMNSLKTEDTAVYYCTRAKFYYSDYGYAMDYWGQGTLVTVSS
IC50 ratio: n.d. (The n.d. (=not detectable) indicates that the IC50 value of the mutant is 10 nM or more)

B4: h10A11 (IGKV4-1/IGHV3-73 F97L): humanized 10A11 heavy chain CDR point mutant (antibody, V domains shown)
VL: B3 VL
VH: B3 VH with K102R, F103L
IC50 ratio: n.d. (The n.d. (=not detectable) indicates that the IC50 value of the mutant is 10 nM or more)

B5: h10A11 (IGKV4-1/IGHV3-73 Y98F): humanized 10A11 heavy chain CDR point mutant (antibody, V domains shown)
VL: B3 VL
VH: B3 VH with K102R, Y104F
IC50 ratio: 0.07

B6: h10A11 (IGKV4-1/IGHV3-73 Y99F): humanized 10A11 heavy chain CDR point mutant (antibody, V domains shown)
VL: B3 VL
VH: B3 VH with K102R, Y105F
IC50 ratio: 0.80

B7: h10A11 (IGKV4-1/IGHV3-73 S100T): humanized 10A11 heavy chain CDR point mutant (antibody, V domains shown)
VL: B3 VL
VH: B3 VH with K102R, S106T
IC50 ratio: 0.64

B14: h10A11 (IGKV4-1/IGHV3-73 D101E): humanized 10A11 heavy chain CDR point mutant (antibody, V domains shown)
VL: B3 VL
VH: B3 VH with K102R, D113E
IC50 ratio: n.d. (The n.d. (=not detectable) indicates that the IC50 value of the mutant is 10 nM or more)

B15: h10A11 (IGKV4-1/IGHV3-73 Y102F): humanized 10A11 heavy chain CDR point mutant (antibody, V domains shown)
VL: B3 VL
VH: B3 VH with K102R, Y114F
IC50 ratio: 0.99

B18: h10A11 (IGKV4-1/IGHV3-73 A33V): humanized 10A11 heavy chain CDR point mutant (antibody, V domains shown)
VL: B3 VL
VH: B3 VH with A33V, K102R
IC50 ratio: n.d. (The n.d. (=not detectable) indicates that the IC50 value of the mutant is 10 nM or more)

B20: h10A11 (IGKV4-1/IGHV3-73 Y35F): humanized 10A11 heavy chain CDR point mutant (antibody, V domains shown)
VL: B3 VL
VH: B3 VH with Y35F, K102R
IC50 ratio: n.d. (The n.d. (=not detectable) indicates that the IC50 value of the mutant is 10 nM or more)

The next lines start with the values.

IC50 ratio: 0.54
B1: h10A11 (IGKV4-1/IGHV3-73 K64R): humanized 10A11 heavy chain CDR point mutant (antibody, V domains shown)
VL: B3 VL
VH: B3 VH with K67R, K102R

IC50 ratio: 1.30
B2: h10A11 (IGKV4-1/IGHV3-73 D65E): humanized 10A11 heavy chain CDR point mutant (antibody, V domains shown)
VL: B3 VL
VH: B3 VH with D68E, K102R

IC50 ratio: 0.30
B8: h10A11 (IGKV4-1/IGHV3-73 D100aE): humanized 10A11 heavy chain CDR point mutant (antibody, V domains shown)
VL: B3 VL
VH: B3 VH with K102R, D107E

IC50 ratio: 0.75
B9: h10A11 (IGKV4-1/IGHV3-73 Y100bF): humanized 10A11 heavy chain CDR point mutant (antibody, V domains shown)
VL: B3 VL
VH: B3 VH with K102R, Y108F

IC50 ratio: 0.07
B10: h10A11 (IGKV4-1/IGHV3-73 G100cA): humanized 10A11 heavy chain CDR point mutant (antibody, V domains shown)
VL: B3 VL
VH: B3 VH with K102R, G109A

IC50 ratio: 0.55
B11: h10A11 (IGKV4-1/IGHV3-73 Y100dF): humanized 10A11 heavy chain CDR point mutant (antibody, V domains shown)
VL: B3 VL
VH: B3 VH with K102R, Y110F

IC50 ratio: 0.49
B12: h10A11 (IGKV4-1/IGHV3-73 A100eV): humanized 10A11 heavy chain CDR point mutant (antibody, V domains shown)
VL: B3 VL
VH: B3 VH with K102R, A111V

IC50 ratio: 0.72
B13: h10A11 (IGKV4-1/IGHV3-73 M100fL): humanized 10A11 heavy chain CDR point mutant (antibody, V domains shown)
VL: B3 VL
VH: B3 VH with K102R, M112L

IC50 ratio: 0.17
B16: h10A11 (IGKV4-1/IGHV3-73 T31A): humanized 10A11 heavy chain CDR point mutant (antibody, V domains shown)
VL: B3 VL
VH: B3 VH with T31A, K102R

IC50 ratio: 0.44
B17: h10A11 (IGKV4-1/IGHV3-73 Y32F): humanized 10A11 heavy chain CDR point mutant (antibody, V domains shown)
VL: B3 VL
VH: B3 VH with Y32F, K102R

IC50 ratio: 0.43
B19: h10A11 (IGKV4-1/IGHV3-73 L34I): humanized 10A11 heavy chain CDR point mutant (antibody, V domains shown)
VL: B3 VL
VH: B3 VH with L34I, K102R
